In the first experiment the target is T1, HLA-B*44:02 (human).
T1 construct: also called peptide-receptive MHC molecules
The experiment in a line: UV-exchange b2m ELISA; exchange-yield grade. An outline of the steps: (§1)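 Binding capacity is graded by how much β2m-containing, stabilised complex survives UV-induced loss of the placeholder peptide. An anti-β2m sandwich ELISA on streptavidin capture, calibrated with refolded monomers (15-500 ng/ml), measures this.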
On the technique in general: ELISA stands for enzyme-linked immunosorbent assay.
PEKTTHSF came in with a peptide exchange yield of 10 to 20%.

TEVSRTEL returned a peptide exchange yield of 20 to 50%.

Take GEIEIHLL: the peptide exchange yield lay within 10 to 20%.

REGDTVQLL gave a peptide exchange yield of 20 to 50%.

AEHFSMIRA came in with a peptide exchange yield of 20 to 50%.

Molecule IEHSTQAQDTL showed a peptide exchange yield of 20 to 50%.

Molecule YEKGIMQKV showed a peptide exchange yield of 20 to 50%.

Regarding YEVARILNL, the peptide exchange yield fell in the range of 20 to 50%.

LEAQQEAL came in with a peptide exchange yield of 20 to 50%.

NEIWTHSY: the peptide exchange yield fell in the range of 10 to 20%.

For KEVDPTSHSY, the peptide exchange yield lay within 20 to 50%.

For GEGPKTSW, the peptide exchange yield was in the range of 20 to 50%.

In the case of AEIEPKADG, the peptide exchange yield was in the range of 20 to 50%.

For the molecule HEFGHVLGL, the peptide exchange yield was in the range of 20 to 50%.

For the molecule MEHPGKLLF, the binding result is recorded as “binds”.

With NEAIMHQY, the peptide exchange yield was 20 to 50%.

EEAQWVRKY displayed a peptide exchange yield of 20 to 50%.

The molecule GEMEQKQL yielded a peptide exchange yield of 20 to 50%.

Consider REAGDEFEL, for which the peptide exchange yield lay in the range of 20 to 50%.

On to TEFPLFSAA, for which the peptide exchange yield is 10 to 20%.

As for RELANDELIL, the peptide exchange yield lay in the range of 20 to 50%.

As to SEDPSKLEA, the peptide exchange yield was in the range of 10 to 20%.

Consider REGPEEPGL, for which the peptide exchange yield was in the range of 20 to 50%.

In turn, SEDGLPEGIHL displayed a peptide exchange yield of 20 to 50%.

In the case of SFEQVVNELF, the peptide exchange yield lay in the range of 20 to 50%.

The molecule SEVPTGTTA returned a peptide exchange yield of 20 to 50%.

LELPPILVY displayed a peptide exchange yield of 10 to 20%.

The molecule AEDKRHYSV displayed a peptide exchange yield of 20 to 50%.

As to LEKALQVF, the peptide exchange yield lay within 20 to 50%.

On to QEILTQVKQ, for which the peptide exchange yield was in the range of 20 to 50%.

Molecule EDAALFKAW came in with a peptide exchange yield of 20 to 50%.

Consider VEQTRAGSLL, for which the peptide exchange yield is 20 to 50%.

In turn, GEPATTVSL registered a peptide exchange yield of 20 to 50%.

As for REAGDEFELRY, the peptide exchange yield fell in the range of 20 to 50%.

For the molecule SEITRIEM, the peptide exchange yield was in the range of 20 to 50%.

In the case of EDGRLVIEF, the peptide exchange yield lay in the range of 10 to 20%.

On to AEATARLNVF, for which the binding result was “binds”.

IEALSGKIEL (also called lEALSGKIEL) gave a peptide exchange yield of 20 to 50%.

As to KEFLFNMY, the peptide exchange yield was in the range of 20 to 50%.

FESHSTVSA: the peptide exchange yield fell in the range of 10 to 20%.

Consider QEAARAAL, for which the peptide exchange yield was in the range of 20 to 50%.

For the molecule KESIPRWYY, the peptide exchange yield was in the range of 20 to 50%.

Turning to AERQPGAASL, the peptide exchange yield was 20 to 50%.

TEVSRTEAI: the peptide exchange yield was 20 to 50%.

With AEHEGVSVL, the peptide exchange yield lay within 20 to 50%.

In turn, AEFLLRIFL displayed a peptide exchange yield of 20 to 50%.

The target of a further experiment is T2, HLA-A*03:01 (human).
T2 construct: also called peptide-receptive MHC molecules
The experiment in a line: UV-exchange b2m ELISA; exchange-yield grade. An outline of the steps:
as §1
ATFERVLLR came in with a peptide exchange yield of 50 to 75%.

KVAGERYVYK: the peptide exchange yield was 50 to 75%.

Take RISEYLLEK: the peptide exchange yield was in the range of 20 to 50%.

Molecule LLQPPPLLAR came in with a peptide exchange yield of 20 to 50%.

Molecule KILEEHTNK gave a peptide exchange yield of 20 to 50%.

In turn, VVLLGSLFSRK had a peptide exchange yield of 20 to 50%.

In the case of RSLRYYYEK, the peptide exchange yield fell in the range of 20 to 50%.

In the case of RVAELLLLH, the peptide exchange yield was in the range of 20 to 50%.

Consider KTYETNLEIKK, for which the peptide exchange yield fell in the range of 50 to 75%.

The molecule GMMKGGIRK gave a peptide exchange yield of 50 to 75%.

Regarding SMYYPLQLK, the peptide exchange yield was in the range of 50 to 75%.

As to ALEVAHRLK, the peptide exchange yield lay in the range of 20 to 50%.

Turning to GTSPPSVEK, the peptide exchange yield lay within 20 to 50%.

As to VLLGSLFSRK, the peptide exchange yield fell in the range of 20 to 50%.

AVAPPTPASK: the peptide exchange yield was 20 to 50%.

Molecule VLYGPAGLGK registered a peptide exchange yield of 50 to 75%.

The molecule QSMYYPLQLK registered a peptide exchange yield of 20 to 50%.

For the molecule VVHAVFALK, the peptide exchange yield lay within 50 to 75%.

For KLQPAQTAAK, the peptide exchange yield lay in the range of 20 to 50%.

KVVDRWNEK returned a peptide exchange yield of 20 to 50%.

For the origin of these results see patent US20180222961A1 (IMMATICS BIOTECHNOLOGIES, published 2018).
